Experimental data published in patent US20200095340A1.

B1: anti-DLL3 trispecific protein 2E011 (protein, part only; not given: CD3 binder and albumin binder, part only)
chain, part: EVQLVESGGGLVQPGGSLTLSCVASGSTSSINAIGWYRRAPGKQRELVAGISSDGSSVYADSVKGRFTISRDNAKNSVYLQMNSLRAEDTAVYYCYYFRRVSGSSMRYWGQGTLVTVSSGGGGSGGGSGGGGSGGGSHHHHHH
B2: anti-DLL3 trispecific protein 2A011 (protein, part only; not given: anti-CD3 and anti-albumin domains, part only)
chain, part: EVQLVESGGGLVQPGGSLTLSCVASGSTSSINAIGWYRRAPGKQRELVAGISSDGSKVYSDSVKGRFTISRDNAKNSVYLQMNSLRAEDTAVYYCYYFRPVSGSSMRYWGQGTLVTVSSGGGGSGGGSGGGGSGGGSHHHHHH
B3: anti-DLL3 trispecific protein 1A05 (protein, part only; not given: CD3 fragment and albumin sdAb, part only)
chain, part: EVQLVESGGGLVQPGGSLTLSCVASGSPSSINAMGWYRRAPGKQRELSAGISSDGSKVYADSVKGRFTISRDNAKNSVYLQMNSLRAEDTAVYYCYYFRTVRGSSMSYWGQGTLVTVSSGGGGSGGGSGGGGSGGGSHHHHHH
B4: anti-DLL3 trispecific protein 1C010 (protein, part only; not given: CD3 binder and albumin binder, part only)
chain, part: EVQLVESGGGLVQPGGSLTLSCVASGSTSRINAMGWYRRAPGKQRELVAGVSSDGSKVYADSVKGRFTISRDNAKNSVYLQMNSLRAEDTAVYYCYYFRTVSGSSMSYWGQGTLVTVSSGGGGSGGGSGGGGSGGGSHHHHHH
B5: anti-DLL3 trispecific protein 1F02 (protein, part only; not given: CD3 binder and albumin binder, part only)
chain, part: EVQLVESGGGLVQPGGSLTLSCVASGSTSSINAMAWYRRAPGKQRELAAGISSDQSKVYADSAKGRFTISRDNAKNSVYLQMNSLRAEDTAVYYCYYFRTVSGSSMSYWGQGTLVTVSSGGGGSGGGSGGGGSGGGSHHHHHH
B6: anti-DLL3 trispecific protein 1A011 (protein, part only; not given: anti-CD3 and anti-albumin domains, part only)
chain, part: EVQLVESGGGLVQPGGSLTLSCVASGSTSSINAIGWYRRAPGKQRELVAGISSDGSKVYIDSVKGRFTISRDNAKNSVYLQMNSLRAEDTAVYYCYYFRTVSGSSYRYWGQGTLVTVSSGGGGSGGGSGGGGSGGGSHHHHHH
B7: anti-DLL3 trispecific protein 2D012 (protein, part only; not given: anti-CD3 fragment and anti-albumin sdAb, part only)
chain, part: EVQLVESGGGLVQPGGSLTLSCVASGKTSSINAMGWYRRAPGKQRELVAGISSDGSKVYTDSVKGRFTISRDNAKNSVYLQMNSLRAEDTAVYYCYYFRTRSGSSMRYWGQGTLVTVSSGGGGSGGGSGGGGSGGGSHHHHHH
B8: anti-DLL3 trispecific protein 1E011 (protein, part only; not given: anti-CD3 and anti-albumin domains, part only)
chain, part: EVQLVESGGGLVQPGGSLTLSCVASGNTSSINAMGWYRRAPGKQRELVAGISSDGSKVYYDSVKGRFTISRDNAKNSVYLQMNSLRAEDTAVYYCYYFRTVRGSSQRYWGQGTLVTVSSGGGGSGGGSGGGGSGGGSHHHHHH
B9: anti-DLL3 trispecific protein 2E05 (protein, part only; not given: CD3 fragment and albumin sdAb, part only)
chain, part: EVQLVESGGGLVQPGGSLTLSCVASGSPSSINAYGWYRRAPGKQRELVAGISSDGSKVYSDSVKGRFTISRDNAKNSVYLQMNSLRAEDTAVYYCYYFRTVSGSSMSYWGQGTLVTVSSGGGGSGGGSGGGGSGGGSHHHHHH
B10: anti-DLL3 trispecific protein 2H02 (protein, part only; not given: anti-CD3 and anti-albumin domains, part only)
chain, part: EVQLVESGGGLVQPGGSLTLSCVASGSTSSINAMAWYRRAPGKQRELAAGISSDGSKVYADSVKGRFTISRDNAKNSVYLQMNSLRAEDTAVYYCYYFHTVSGSSMRYWGQGTLVTVSSGGGGSGGGSGGGGSGGGSHHHHHH
B11: anti-DLL3 trispecific protein 2C02 (protein, part only; not given: CD3 binder and albumin binder, part only)
chain, part: EVQLVESGGGLVQPGGSLTLSCVASGSTSSINAVGWYRRAPGKQRELVAGISSDGSKVYVDSVKGRFTISRDNAKNSVYLQMNSLRAEDTAVYYCYYFRTVYGSSMRYWGQGTLVTVSSGGGGSGGGSGGGGSGGGSHHHHHH
B12: anti-DLL3 trispecific protein 1D011 (protein, part only; not given: anti-CD3 and anti-albumin domains, part only)
chain, part: EVQLVESGGGLVQPGGSLTLSCVASGSTSSINAMAWYRRAPGKQRELVAGISSDNSKVYADSVKGRFTISRDNAKNSVYLQMNSLRAEDTAVYYCYYFRTVSGHSMRYWGQGTLVTVSSGGGGSGGGSGGGGSGGGSHHHHHH
B13: anti-DLL3 trispecific protein 1A012 (protein, part only; not given: CD3 binder and albumin binder, part only)
chain, part: EVQLVESGGGLVQPGGSLTLSCVASGSTSSINAMAWYRRAPGKQRELVAGISSDGSKVYSDSVKGRFTISRDNAKNSVYLQMNSLRAEDTAVYYCYYFRTVLGSSMRYWGQGTLVTVSSGGGGSGGGSGGGGSGGGSHHHHHH
B14: anti-DLL3 trispecific protein 1F011 (protein, part only; not given: anti-CD3 fragment and anti-albumin sdAb, part only)
chain, part: EVQLVESGGGLVQPGGSLTLSCVASGSTSSINAIGWYRRAPGKQRELVAGISSDGSKVYADSVKGRFTISRDNAKNSVYLQMNSLRAEDTAVYYCYYFRTVKGSSMRYWGQGTLVTVSSGGGGSGGGSGGGGSGGGSHHHHHH
B15: anti-DLL3 trispecific protein 1H012 (protein, part only; not given: anti-CD3 fragment and anti-albumin sdAb, part only)
chain, part: EVQLVESGGGLVQPGGSLTLSCVASGSTSSINAMGWYRRAPGKQRELVAGISSDGSKVYVDSVKGRFTISRDNAKNSVYLQMNSLRAEDTAVYYCYYFRTVSGSSMPYWGQGTLVTVSSGGGGSGGGSGGGGSGGGSHHHHHH
B16: anti-DLL3 trispecific protein 2E010 (protein, part only; not given: anti-CD3 and anti-albumin domains, part only)
chain, part: EVQLVESGGGLVQPGGSLTLSCVASGSTSSINAMAWYRRAPGKQRELVAGISSDGSKVYADSVKGRFTISRDNAKNSVYLQMNSLRAEDTAVYYCYYFHTVSGSSMRYWGQGTLVTVSSGGGGSGGGSGGGGSGGGSHHHHHH
B17: anti-DLL3 trispecific protein 1E09 (protein, part only; not given: CD3 fragment and albumin sdAb, part only)
chain, part: EVQLVESGGGLVQPGGSLTLSCVASGSTSSINAMAWYRRAPGKQRELVAGISSDGSKVYTDSVKGRFTISRDNAKNSVYLQMNSLRAEDTAVYYCYYFRTRSGSSMRYWGQGTLVTVSSGGGGSGGGSGGGGSGGGSHHHHHH
B18: anti-DLL3 trispecific protein 2G08 (protein, part only; not given: anti-CD3 and anti-albumin domains, part only)
chain, part: EVQLVESGGGLVQPGGSLTLSCVASGSTSYINAMGWYRRAPGKQRELVAGISSDGSKVYADSVKGRFTISRDNAKNSVYLQMNSLRAEDTAVYYCYYFRTVSGQSMGYWGQGTLVTVSSGGGGSGGGSGGGGSGGGSHHHHHH
B19: anti-DLL3 trispecific protein 1C01 (protein, part only; not given: anti-CD3 and anti-albumin domains, part only)
chain, part: EVQLVESGGGLVQPGGSLTLSCVASGSTSSINAMGWYRRAPGKQRELVAGISSDGSKVYRDSVKGRFTISRDNAKNSVYLQMNSLRAEDTAVYYCYYFRTVSGSSMGYWGQGTLVTVSSGGGGSGGGSGGGGSGGGSHHHHHH
B20: anti-DLL3 trispecific protein 3H011 (protein, part only; not given: CD3 fragment and albumin sdAb, part only)
chain, part: EVQLVESGGGLVQPGGSLTLSCAASGSSVKFLSMAWYRQAPGKKRELVAGISADGSTVYIDSVKGRFTISRDNAKNSVYLQMNSLRAEDTAVYYCYAYRWPTRYTYWGQGTLVTVSSGGGGSGGGSGGGGSGGGSHHHHHH
B21: anti-DLL3 trispecific protein 4G01 (protein, part only; not given: CD3 binder and albumin binder, part only)
chain, part: EVQLVESGGGLVQPGGSLTLSCAASGSSVRFLSMAWYRQAPGKKRELVAGISADGSTVYIDSVKGRFTISRDNAKNSVYLQMNSLRAEDTAVYYCYAYRWPTRYTYWGQGTLVTVSSGGGGSGGGSGGGGSGGGSHHHHHH
B22: anti-DLL3 trispecific protein 3C03 (protein, part only; not given: anti-CD3 fragment and anti-albumin sdAb, part only)
chain, part: EVQLVESGGGLVQPGGSLTLSCAASGSSVRFLSMAWYRQAPGKKRELVAGISRDGSTVYIDSVKGRFTISRDNAKNSVYLQMNSLRAEDTAVYYCYAYRWTTRGTYWGQGTLVTVSSGGGGSGGGSGGGGSGGGSHHHHHH
B23: anti-DLL3 trispecific protein 4H011 (protein, part only; not given: anti-CD3 and anti-albumin domains, part only)
chain, part: EVQLVESGGGLVQPGGSLTLSCAASGSSVSRLSMAWYRQAPGKKRELVAGISVDGSTDYIDSVKGRFTISRDNAKNSVYLQMNSLRAEDTAVYYCYAYRWTTRLTYWGQGTLVTVSSGGGGSGGGSGGGGSGGGSHHHHHH
B24: anti-DLL3 trispecific protein 4B07 (protein, part only; not given: anti-CD3 fragment and anti-albumin sdAb, part only)
chain, part: EVQLVESGGGLVQPGGSLTLSCAASGSSVGFLSMAWYRQAPGKKRELVAGISADGSTVYIDSVKGRFTISRDNAKNSVYLQMNSLRAEDTAVYYCYAYRWTTRYTYWGQGTLVTVSSGGGGSGGGSGGGGSGGGSHHHHHH
B25: anti-DLL3 trispecific protein 4B011 (protein, part only; not given: CD3 fragment and albumin sdAb, part only)
chain, part: EVQLVESGGGLVQPGGSLTLSCAASGSSVTFLSMAWYRQAPGKKRELVAGISADGSTVYIDSVKGRFTISRDNAKNSVYLQMNSLRAEDTAVYYCYAYRWTTRGTYWGQGTLVTVSSGGGGSGGGSGGGGSGGGSHHHHHH
B26: anti-DLL3 trispecific protein 3F010 (protein, part only; not given: CD3 fragment and albumin sdAb, part only)
chain, part: EVQLVESGGGLVQPGGSLTLSCAASYSSVSRLSMAWYRQAPGKKRELVAGISADGSTVYIDSVKGRFTISRDNAKNSVYLQMNSLRAEDTAVYYCYAYRWTTRNTYWGQGTLVTVSSGGGGSGGGSGGGGSGGGSHHHHHH
B27: anti-DLL3 trispecific protein 4D09 (protein, part only; not given: CD3 binder and albumin binder, part only)
chain, part: EVQLVESGGGLVQPGGSLTLSCAASGSSVKFLSMAWYRQAPGKKRELVAGISADGSTDYILSVKGRFTISRDNAKNSVYLQMNSLRAEDTAVYYCYAYEWTTRYTYWGQGTLVTVSSGGGGSGGGSGGGGSGGGSHHHHHH
B28: anti-DLL3 trispecific protein 3C04 (protein, part only; not given: anti-CD3 and anti-albumin domains, part only)
chain, part: EVQLVESGGGLVQPGGSLTLSCAASGSHVSFLSMAWYRQAPGKKRELVAGISADGPTDYIDSVKGRFTISRDNAKNSVYLQMNSLRAEDTAVYYCYAYRWDTRYTYWGQGTLVTVSSGGGGSGGGSGGGGSGGGSHHHHHH
B29: anti-DLL3 trispecific protein 4E02 (protein, part only; not given: CD3 binder and albumin binder, part only)
chain, part: EVQLVESGGGLVQPGGSLTLSCAASGSQVSFLSMAWYRQAPGKKRELVAGISADGSTVYIDSVKGRFTISRDNAKNSVYLQMNSLRAEDTAVYYCYAYRWSTRYTYWGQGTLVTVSSGGGGSGGGSGGGGSGGGSHHHHHH
B30: anti-DLL3 trispecific protein 4D01 (protein, part only; not given: CD3 binder and albumin binder, part only)
chain, part: EVQLVESGGGLVQPGGSLTLSCAASGSSVRFLSMAWYRQAPGKKRELVAGISADGSTVYIDSVKGRFTISRDNAKNSVYLQMNSLRAEDTAVYYCYAYRWTTRRTYWGQGTLVTVSSGGGGSGGGSGGGGSGGGSHHHHHH
B31: anti-DLL3 trispecific protein 2E01 (protein, part only; not given: anti-CD3 and anti-albumin domains, part only)
chain, part: EVQLVESGGGLVQPGGSLTLSCVASGSTSSINAMGWYRRAPFKQGELPAGISPDGTKAYADSAKVRFTISRDNAKNSVYLQMNSLRAEDTAVYYCYYFHTVCGTSMGYWGQGTLVTVSSGGGGSGGGSGGGGSGGGSHHHHHH

Biological target: biotinylated human DLL3 protein expressed as a human IgG1 fusion protein (human) (UniProt Q9NYJ7)
Sequence (Q9NYJ7 other isoform, or with tags, fused parts or gaps): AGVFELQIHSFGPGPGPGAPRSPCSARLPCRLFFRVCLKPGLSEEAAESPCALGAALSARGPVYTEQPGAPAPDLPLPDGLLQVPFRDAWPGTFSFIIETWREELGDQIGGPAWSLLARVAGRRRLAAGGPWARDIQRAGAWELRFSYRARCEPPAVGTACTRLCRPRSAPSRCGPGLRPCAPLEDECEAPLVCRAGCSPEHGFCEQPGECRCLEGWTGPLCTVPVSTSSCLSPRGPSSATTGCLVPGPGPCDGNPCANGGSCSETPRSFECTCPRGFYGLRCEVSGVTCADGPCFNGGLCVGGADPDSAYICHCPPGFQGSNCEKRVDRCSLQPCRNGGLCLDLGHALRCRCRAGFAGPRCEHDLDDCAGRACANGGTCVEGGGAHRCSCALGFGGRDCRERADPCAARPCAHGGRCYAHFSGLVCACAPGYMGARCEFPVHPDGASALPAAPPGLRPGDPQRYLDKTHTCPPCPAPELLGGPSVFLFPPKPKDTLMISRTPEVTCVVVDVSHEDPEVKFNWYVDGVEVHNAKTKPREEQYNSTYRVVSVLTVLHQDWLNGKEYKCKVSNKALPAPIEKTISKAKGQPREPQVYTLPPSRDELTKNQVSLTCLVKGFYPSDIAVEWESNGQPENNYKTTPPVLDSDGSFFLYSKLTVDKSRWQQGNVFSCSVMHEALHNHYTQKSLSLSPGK
Experiment: Octet BLI; biotinylated huDLL3-IgG1 fusion on streptavidin tips; single 50 nM; conditioned medium

Row | Binder | Kd
1 | B1 | 2.4 nM
2 | B2 | 4 nM
3 | B3 | 4 nM
4 | B4 | 2.5 nM
5 | B5 | 4 nM
6 | B6 | 3.7 nM
7 | B7 | 4.9 nM
8 | B8 | 2.7 nM
9 | B9 | 3.9 nM
10 | B10 | 4.4 nM
11 | B11 | 4.1 nM
12 | B12 | 4.4 nM
13 | B13 | 4.9 nM
14 | B14 | 5 nM
15 | B15 | 3.5 nM
16 | B16 | 4 nM

Row | Binder | Kd
17 | B17 | 4.4 nM
18 | B18 | 4.1 nM
19 | B19 | 4.3 nM
20 | B20 | 2.7 nM
21 | B21 | 3.6 nM
22 | B22 | 4.9 nM
23 | B23 | 4.5 nM
24 | B24 | 4.3 nM
25 | B25 | 3.9 nM
26 | B26 | 4.4 nM
27 | B27 | 4.7 nM
28 | B28 | 4.5 nM
29 | B29 | 3.8 nM
30 | B30 | 3.7 nM
31 | B31 | 4.1 nM
